Tests used:
Experiment in all cases: enzyme inhibition kinetics
[1] = target: plasmin (UniProt P00747)
[2] = target: single-chain tissue-type plasminogen activator
[3] = target: thrombin (UniProt P00734)

Chain of wild type plasminogen activator inhibitor-1 (recombinant, baculovirus system) (P05121 24-402): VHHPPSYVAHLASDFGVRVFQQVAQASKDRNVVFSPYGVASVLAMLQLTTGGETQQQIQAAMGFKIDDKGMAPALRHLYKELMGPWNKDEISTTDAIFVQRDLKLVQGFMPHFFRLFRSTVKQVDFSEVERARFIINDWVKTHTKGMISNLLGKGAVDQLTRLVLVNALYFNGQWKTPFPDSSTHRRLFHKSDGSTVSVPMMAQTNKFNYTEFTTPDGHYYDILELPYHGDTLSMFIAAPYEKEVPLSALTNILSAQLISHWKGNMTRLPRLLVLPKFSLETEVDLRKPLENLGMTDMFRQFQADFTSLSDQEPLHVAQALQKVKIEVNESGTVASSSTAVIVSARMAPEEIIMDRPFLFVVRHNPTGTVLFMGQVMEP

Substance: wild type plasminogen activator inhibitor-1 (recombinant, baculovirus system) (from UniProt P05121 24-402) (natural protein)
- second-order rate constant of inhibition [1]: 31000 M⁻¹ s⁻¹
- second-order rate constant of inhibition [2]: 2.11e+07 M⁻¹ s⁻¹
- second-order rate constant of inhibition [3]: 720 M⁻¹ s⁻¹

From article PMC179894
